Measurements from publication PMC6978347.

Assays:
[1] = target: polymerization-deficient p62^1–102 (D69A/D73A) (human) (UniProt Q13501); assay: ITC; VP-ITC, 25 °C, 10 mM HEPES pH 7.5, 150 mM NaCl; p62 D69A/D73A in the cell (5–20 μM), partner PB1 domain in the syringe (25–100 μM); one-site model; mean of three measurements
p62 PB1 (Homo sapiens) = p62 PB1 (Homo sapiens) (UniProt Q13501); settings: cited from earlier work

Row | Kd [1] [nM] | Substance | Kd (p62 PB1 (Homo sapiens)) [nM]
1 | 12.6 | NBR1^1–85 (human NBR1–PB1) (from UniProt Q14596 1-85) (domain or fragment) | 
2 | 8.9 | PKCζ^11–101 (pKCζ–PB1) (from UniProt Q05513 11-101) (domain or fragment) | 
3 |  | p62 PB1 (from UniProt Q13501) | 6
